In patent US20260183437A1 (ABDERA THERAPEUTICS, published 2026):

How the values were obtained:
[1] = biological target: T1, DLL3 on cells (UniProt Q9NYJ7 27-618, limits assumed); assay: flow cytometry on HEK-DLL3 cells
T1 construct: whole, on cells; also called DLL3 on SHP-77, NCI-H82 (H82), NCI-H69 and HEK-DLL3 cells
T1 sequence (looked up): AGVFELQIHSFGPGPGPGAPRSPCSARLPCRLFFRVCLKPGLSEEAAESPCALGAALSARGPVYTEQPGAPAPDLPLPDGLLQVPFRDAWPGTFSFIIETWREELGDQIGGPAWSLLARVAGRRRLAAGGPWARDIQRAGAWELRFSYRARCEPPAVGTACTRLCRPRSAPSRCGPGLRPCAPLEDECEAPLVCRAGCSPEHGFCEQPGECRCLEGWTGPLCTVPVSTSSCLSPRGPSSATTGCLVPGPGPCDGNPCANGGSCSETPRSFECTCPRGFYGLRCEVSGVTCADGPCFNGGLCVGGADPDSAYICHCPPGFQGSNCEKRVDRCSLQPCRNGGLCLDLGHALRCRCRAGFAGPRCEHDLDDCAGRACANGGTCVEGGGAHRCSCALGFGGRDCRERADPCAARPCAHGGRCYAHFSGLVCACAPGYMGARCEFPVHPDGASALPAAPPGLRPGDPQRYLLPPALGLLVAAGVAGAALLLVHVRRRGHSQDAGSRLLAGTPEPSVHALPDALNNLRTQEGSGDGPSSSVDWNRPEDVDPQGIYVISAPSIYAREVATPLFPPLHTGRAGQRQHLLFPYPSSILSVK

[2] = biological target: T1, DLL3 on cells; assay: flow cytometry on SHP-77 cells

EC50 [1]: 0.06 nM | EC50 [2]: 0.11 nM
B1: Rovalpituzumab (antibody, V domains shown)
VH: QVQLVQSGAEVKKPGASVKVSCKASGYTFTNYGMNWVRQAPGQGLEWMGWINTYTGEPTYADDFKGRVTMTTDTSTSTAYMELRSLRSDDTAVYYCARIGDSSPSDYWGQGTLVTVSS
VL: EIVMTQSPATLSVSPGERATLSCKASQSVSNDVVWYQQKPGQAPRLLIYYASNRYTGIPARFSGSGSGTEFTLTISSLQSEDFAVYYCQQDYTSPWTFGQGTKLEIK
